According to patent US20140112930A1 (published 2014):

How the values were obtained:
[1] = molecular target: T1, Full-length human Ang-2 protein conjugated to 6x histidine tag (human, UniProt O15123 19-496); experiment: blocking ELISA, 0.6 nM hAng-2-His to coated hTie-2-mFc
T1 construct: Bought (R&D Systems); printed as full-length; also called hAng-2 WT; Ang-2-His; not shown: 6x histidine tag
T1 sequence: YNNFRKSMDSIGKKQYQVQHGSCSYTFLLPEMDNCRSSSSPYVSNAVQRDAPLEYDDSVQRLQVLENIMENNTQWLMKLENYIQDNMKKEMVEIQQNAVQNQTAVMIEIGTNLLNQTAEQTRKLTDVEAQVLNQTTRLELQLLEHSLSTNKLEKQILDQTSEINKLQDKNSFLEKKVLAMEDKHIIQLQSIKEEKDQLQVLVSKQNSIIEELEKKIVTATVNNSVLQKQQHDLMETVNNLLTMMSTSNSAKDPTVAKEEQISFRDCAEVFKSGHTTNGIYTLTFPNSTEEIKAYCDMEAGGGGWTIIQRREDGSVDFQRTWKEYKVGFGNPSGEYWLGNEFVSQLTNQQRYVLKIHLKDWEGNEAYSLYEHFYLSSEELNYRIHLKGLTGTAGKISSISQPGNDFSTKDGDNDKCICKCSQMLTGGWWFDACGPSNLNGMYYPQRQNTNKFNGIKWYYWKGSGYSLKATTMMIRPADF
Protocol: Briefly, hTie-2-mFc (a chimeric construct consisting of human Tie-2 conjugated to mouse IgG; SEQ ID NO:525) was coated onto 96-well plates at a concentration of 2 μg/ml and incubated overnight followed by washing four times in wash buffer (PBS with 0.05% Tween-20). The plate was then blocked with PBS (Irvine Scientific, Santa Ana, Calif.) containing 0.5% BSA (Sigma-Aldrich Corp., St. Louis, Mo.) for one hour at room temperature. […] The antibody/antigen mixture was then added to the plate containing hTie-2-mFc and incubated for one hour at room temperature. […] Absorbance was read at OD₄₅₀ for 0.1 sec.

hAng-1-WT [2] = molecular target: T2, hAng-1-WT (human, UniProt Q15389 20-498, limits assumed); experiment: SPR, 1 uM blocker premixed with 10 nM hAng-1-WT, over hTie-2-mFc surface; RU of hAng-1 bound
T2 construct: a tag is not mentioned there; also called full-length wild-type human Ang-1
T2 sequence (looked up): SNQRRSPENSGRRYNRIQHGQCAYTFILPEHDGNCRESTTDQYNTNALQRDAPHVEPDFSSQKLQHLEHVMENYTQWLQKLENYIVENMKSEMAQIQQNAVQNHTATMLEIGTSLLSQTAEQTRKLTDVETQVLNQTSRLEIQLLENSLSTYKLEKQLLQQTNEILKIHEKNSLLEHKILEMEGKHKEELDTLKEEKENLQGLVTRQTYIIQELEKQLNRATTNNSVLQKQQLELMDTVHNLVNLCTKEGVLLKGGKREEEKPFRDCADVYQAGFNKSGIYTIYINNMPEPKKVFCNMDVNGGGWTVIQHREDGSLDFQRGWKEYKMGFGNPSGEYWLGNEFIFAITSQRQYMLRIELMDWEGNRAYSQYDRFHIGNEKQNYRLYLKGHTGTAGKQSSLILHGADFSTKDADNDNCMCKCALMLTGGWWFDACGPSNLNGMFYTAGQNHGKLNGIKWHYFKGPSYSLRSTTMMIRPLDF
Protocol: (§1) In this experiment, a human Tie-2 full-length extracellular domain construct (hTie-2-mFc-ecto) was amine-coupled on a BIACORE™ chip to create a receptor coated surface. […] The equilibrated solutions were injected over the receptor surfaces at 5 μL/min for 5 minutes at 25° C.

hAng-1-WT [3] = molecular target: T2, hAng-1-WT; experiment: SPR, 1 uM blocker premixed with 10 nM hAng-1-WT, over hTie-2-mFc surface
Protocol: as §1

hAng-2FD-mFc S-417-I = molecular target: T3, hAng-2FD-mFc S-417-I (human, UniProt O15123 282-496); experiment: SPR 25C, hAng-2FD-mFc captured on anti-mFc, 100 nM analyte
T3 construct: not shown: mouse Fc
T3 chain: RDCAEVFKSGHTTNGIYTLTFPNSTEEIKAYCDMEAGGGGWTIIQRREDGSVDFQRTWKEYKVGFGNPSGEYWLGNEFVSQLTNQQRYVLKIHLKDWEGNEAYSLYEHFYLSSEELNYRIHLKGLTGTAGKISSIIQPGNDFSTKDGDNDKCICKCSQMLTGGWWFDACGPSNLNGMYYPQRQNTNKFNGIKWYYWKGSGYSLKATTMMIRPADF

hAng-2FD-mFc S-480-P = molecular target: T4, hAng-2FD-mFc S-480-P (human, UniProt O15123 282-496); experiment: as above
T4 construct: not shown: mouse Fc
T4 chain: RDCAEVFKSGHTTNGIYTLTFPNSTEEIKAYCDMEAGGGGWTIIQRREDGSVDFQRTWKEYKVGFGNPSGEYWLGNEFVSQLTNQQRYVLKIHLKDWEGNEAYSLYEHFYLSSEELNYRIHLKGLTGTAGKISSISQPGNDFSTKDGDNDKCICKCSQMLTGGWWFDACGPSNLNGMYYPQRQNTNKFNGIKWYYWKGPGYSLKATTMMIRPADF

[4] = molecular target: T5, wild-type Ang-2FD-mFc construct (human, UniProt O15123 282-496); experiment: as above
T5 construct: also called WT; hAng-2FD-mFc; not shown: mouse Fc
T5 sequence: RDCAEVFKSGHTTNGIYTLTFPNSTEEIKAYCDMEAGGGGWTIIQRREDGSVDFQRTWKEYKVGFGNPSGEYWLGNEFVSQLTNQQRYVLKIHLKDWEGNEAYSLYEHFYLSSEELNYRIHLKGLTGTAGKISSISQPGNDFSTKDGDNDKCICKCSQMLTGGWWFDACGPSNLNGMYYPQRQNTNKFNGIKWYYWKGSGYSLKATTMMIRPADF

Biotin-hBA2 = molecular target: T6, Biotin-hBA2 (human, biotinylated (sites not given)); experiment: blocking ELISA, biotin-hBA2 to hTie-2
T6 construct: hBA2 consists of two dimers; also called biotinylated hBA2; human bow-Ang2
T6 sequence (chain, as listed by the source limits assumed): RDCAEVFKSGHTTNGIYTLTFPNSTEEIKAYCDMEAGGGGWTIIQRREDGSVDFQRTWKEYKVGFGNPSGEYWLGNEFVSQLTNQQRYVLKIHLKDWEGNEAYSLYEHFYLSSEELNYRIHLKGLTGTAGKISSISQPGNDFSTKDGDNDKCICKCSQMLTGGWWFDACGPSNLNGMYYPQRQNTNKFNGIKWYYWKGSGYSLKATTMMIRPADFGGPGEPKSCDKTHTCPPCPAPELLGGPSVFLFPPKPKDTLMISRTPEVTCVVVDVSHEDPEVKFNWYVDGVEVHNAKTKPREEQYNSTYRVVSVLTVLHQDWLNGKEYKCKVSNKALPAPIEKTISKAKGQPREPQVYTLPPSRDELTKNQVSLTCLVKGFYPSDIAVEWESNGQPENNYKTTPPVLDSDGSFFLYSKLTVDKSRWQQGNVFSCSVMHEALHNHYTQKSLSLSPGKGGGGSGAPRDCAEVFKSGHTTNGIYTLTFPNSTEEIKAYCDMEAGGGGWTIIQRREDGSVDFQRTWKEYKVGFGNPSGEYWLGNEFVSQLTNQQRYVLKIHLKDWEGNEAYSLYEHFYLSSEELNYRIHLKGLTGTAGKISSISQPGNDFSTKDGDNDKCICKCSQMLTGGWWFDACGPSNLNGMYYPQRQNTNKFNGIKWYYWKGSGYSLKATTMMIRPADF

B1: H1H744N (antibody, V domains shown)
VH: QVQLVQSGVEVKKPGASVKVSCKTSGYTFSNNGFSWVRQAPGQGLEWLGWISGYNGNTNYAQKFQGRVTMTTDTSTSTAYMELRTLRSDDTAVYYCARDQDYSNFHWLDPWGQGTLVTVAS
VL: DIQMTQSPSSVSASVGDRVIITCRASQGLSSWLAWYQQKPGTAPKLLIHSASSLQTGVPSRFSGSGSGTEFALTINSLQPEDFGTYYCQQANSFPLTFGGGTRVEIK
- IC50 [1]: 0.0787 nM
- RU (average) (hAng-1-WT [2]): 57 RU
- Percent of Negative Control Binding (hAng-1-WT [3]): 34%
- Kd (hAng-2FD-mFc S-417-I): 0.0512 nM
- RU (hAng-2FD-mFc S-417-I): 127 RU
- T ½ (hAng-2FD-mFc S-417-I): 26.5 h
- Kd (hAng-2FD-mFc S-480-P): 0.0225 nM
- RU (hAng-2FD-mFc S-480-P): 228 RU
- T ½ (hAng-2FD-mFc S-480-P): 35.5 h
- Kd [4]: 0.0398 nM
- RU [4]: 213 RU
- T ½ [4]: 15.1 h
- IC50 (Biotin-hBA2): 0.025 nM
